We go through 29 sequences from the DeepSol protein solubility set.

A short description of the series: soluble on expression in E. coli; label from the status in PepcDB or PDB records.
With “GQSITDYNYKKPLHNDYQILDKSKIFGSNSGSFVMYSMKKDKYYIYNEKESRKRYSPNSTYKIYLAMFGLDRHIINDENSRMSWNHKHYPFDAWNKEQDLNTAMQNSVNWYFERISDQIPKNYTATQLKQLNYGNKNLGSYKSYWMEDSLKISNLEQVIVFKNMMEQNNHFSKKAKNQLSSSLLIKKNEKYELYGKTGTGIVNGKYNNGWFVGYVITNHDKYYFATHLSDGKPSGKNAELISEKILKEMGVLNGQ”, the “soluble on expression in E. coli” value was “soluble”.
The result for “GRKQEPFENVTLDVEEQHQGSVMQALGERKGDLKNMNPDGKGRVRLDYVIPSRGLIGFRSEFMTMTSGTGLLYSTFSHYDDVRPGEVGQRNNGVLISNGQGKAVAFALFGLQDRGKLFLGHGAEVYEGQI” reads “not soluble”.
Next, “GRMRIQEQSGARDKMVIGAGGLEDYIDKAMDDVAPNLKALVGAKLGARLISLAGGLKELAMLPSSTIQVLGAEKALFRHLRTGAKPPKHGVIYQYPAINRSPWWQRGKIARALAGKLAIAARVDYFSGEYIAEELKKELEARIKEIKEKYPRPPKRRKEERKGRKPWKE”: “soluble”.
In the case of “GRPVITTSIVQDQGIDELEAAIASLFFESGIESGDVTYVSNSRHIALLEQAKRAVEDALEAIEMDVPIDMVQIDITRAWELLGEIIGDSVHESLIDQLFSQFCLG”, the “soluble on expression in E. coli” value is given as “soluble”.
Next, “GSDGDALLKPCKLGDMQCLSSATEQFLEKTSKGIPQYDIWPIDPLVVTSLDVIAPSDAGIVIRFKNLNITGLKNQQISDFQMDTKAKTVLLKTKADLHIVGDIVIELTEQSKSFTGLYTADTNVIGAVRYGYNLKNDDNGVQHFEVQPETFTCESIGEPKITLSSDLSSALEKDSGNNSLEPDMEPLKTLRQAAICKIAEACYISVVHNIRASAKILPASSFFENLN”: “soluble”; “GSGIMAASRPLSRFWEWGKNIVCVGRNYADHVREMRSAVLSEPVLFLKPSTAYAPEGSPILMPAYTRNLHHELELGVVMGKRCRAVPEAAAMDYVGGYALCLDMTARDVQDECKKKGLPWTLAKSFTASCPVSAFVPKEKIPDPHKLKLWLKVNGELRQEGETSSMIFSIPYIISYVSKIITLEEGDIILTGTPKGVGPVKENDEIEAGIHGLVSMTFKVEKPEY”: “soluble”; “GSHMASPTPAPSQSPIRRDAFSIIEAEEYNSTNSSTLQVIGTPNNGRGIGYIENGNTVTYSNIDFGSGATGFSATVATEVNTSIQIRSDSPTGTLLGTLYVSSTGSWNTYNTVSTNISKITGVHDIVLVFSGPVNVDNFIFSRSS”: “soluble”.
As to “GSHMASRTPKKLSNIALTKETRQSSTDYNGFSRLAVDGNKNGDYGHHSVTHTKEDSPSWWEIDLAQTEELEKLIIYNRTDAEIQRLSNFDIIIYDSNDYEVFTQHIDSLESNNLSIDLKGLKGKKVRISLRSAGIPLSLAEVEVYTYK”, the “soluble on expression in E. coli” value is “soluble”.
Regarding “GSHMDADGKLLTEGGENENLRKNASKKETSLFQGFKSYLPIAELAIENTERLNY”, the “soluble on expression in E. coli” value is on record as “soluble”.
The result for “GSHMHRVINHPYYFPFNGKQAEDYLRSKERGDFVIRQSSRGDDHLAITWKLDKDLFQHVDIQEMEKENPLAMGKVLVVEGQRYHDLDQIIVEYLQNKIRLLNE” reads “soluble”.
“GSHMKEDQVVAEEPGFQDEEESLFQDIDLLQKHGINVADIKKLKSVGICTIKGIQMTTRRALCNVKGLSEAKVDKIKEAANKLIEPGFLTAFEYSEKRKMVFHITTGSQEFDKLLGGGIESMAITEAFGEFRTGKTQLSHTLCVTAQLPGAGGYPGGKIIFIDTENTFRPDRLRDIADRFNVDHDAVLDNVLYARAYTSEHQMELLDYVAAKFHEEAGIFKLLIIDSIMALFRVDFSGRGELAERQQKLAQMLSRLQKISEEYNVAVFVTNQMTADPGATMTFQADPKKPIGGHILAHASTTRISLRKGRGELRIAKIYDSPEMPENEATFAITAGGIGDAKE”: the “soluble on expression in E. coli” value is “soluble”.
The result for “GSHMLESSAEESLAYREDDLRGRLGKVITAVPVDGFGEVVIEGIGGTISKSAVSFDNQQISYGTTVLVVDINNGVLSVTPHEPI” reads “soluble”.
The result for “GSHMLKGQEFAPSHQQVYAPLRADGDKPRAHLTVVRQTPTQHFKNQFPALHWEHELGLAFTKNRMNYTNKFLLIPESGDYFIYSQVTFRGMTSESSEIRQAGRPNKPDSITVVITKVTDSYPEPTQLLMGTKSVSEVGSNWFQPIYLGAMFSLQEGDKLMVNVSDISLVDYTKEDKTFFGAFLL” reads “soluble”; that for “GSHMPAPHGGILQDLIARDALKKNELLSEAQSSDILVWNLTPRQLCDIELILNGGFSPLTGFLNENDYSSVVTDSRLADGTLWTIPITLDVDEAFANQIKPDTRIALFQDDEIPIAILTVQDVYKPNKTIEAEKVFRGDPEHPAISYLFNVAGDYYVGGSLEAIQLPQHYDYPGLRKTPAQLRLEFQSRQWDRVVAFQTRNPMHRAHRELTVRAAREANAKVLIHPVVGLTKPGDIDHHTRVRVYQEIIKRYPNGIAFLSLLPLAMRMSGDREAVWHAIIRKNYGASHFIVGRDHAGPGKNSKGVDFYGPYDAQELVESYKHELDIEVVPFRMVTYLPDEDRYAPIDQIDTTKTRTLNISGTELRRRLRVGGEIPEWFSYPEVVKILRESNPPRPKQGFSIVLGNSLTVSREQLSIALLSTFLQFGGGRYYKIFEHNNKTELLSLIQDFIGSGSGLIIPNQWEDDKDSVVGKQNVYLLDTSSSADIQLESADEPISHIVQKVVLFLEDNGFFVF”, “soluble”; that for “GSHMPLSSENKQKLQKQVEFYFSDVNVQRDIFLKGKMAENAEGFVSLETLLTFKRVNSVTTDVKEVVEAIRPSEKLVLSEDGLMVRRRDPLP”, “soluble”.
The result for “GSHMQPMQAMKIERGTILTQPGVFGVFTMFKLRPDWNKVPAMERKGAAEEVKKLIEKHKDNVLVDLYLTRGLETNSDFFFRINAYDLAKAQTFMREFRSTTIGKNADVFETLVGVTKPLNYISKDKSPGLNAGLSSATYSGPAPRYVIVIPVKKNAEWWNMSPEERLKEMEVHTTPTLAYLVNVKRKLYHSTGLDDTDFITYFETDDLTAFNNLMLSLAQVKENKFHVRWGSPTTLGTIHSPEDVIKALAD” reads “soluble”.
Regarding “GSHMRTIIALETHDVRFPTSRELDGSDAMNPDPDYSAAYVVLRTDGAEDLAGYGLVFTIGRGNDVQTAAVAALAEHVVGLSVDKVIADLGAFARRLTNDSQLRWLGPEKGVMHMAIGAVINAAWDLAARAANKPLWRFIAELTPEQLVDTIDFRYLSDALTRDEALAILRDAQPQRAARTATLIEQGYPAYTTSPGWLGYSDEKLVRLAKEAVADGFRTIKLKVGANVQDDIRRCRLARAAIGPDIAMAVDANQRWDVGPAIDWMRQLAEFDIAWIEEPTSPDDVLGHAAIRQGITPVPVSTGEHTQNRVVFKQLLQAGAVDLIQIDAARVGGVNENLAILLLAAKFGVRVFPHAGGVGLCELVQHLAMADFVAITGKMEDRAIEFVDHLHQHFLDPVRIQHGRYLAPEVPGFSAEMHPASIAEFSYPDGRFWVEDLAASKAKA”, the “soluble on expression in E. coli” value is listed as “soluble”.
Next, “GSKATDSVLQGSEGNKVKRTSCMYGANCYRKNPVHFQHFSHPGDSDYGGVQIVGQDETDDRPECPYGPSCYRKNPQHKIEYRHNTLPVRNV”: “soluble”; “GSLNITENESISTAVIDAINSGATLKDINAIPDDMMDDIYSYAYDFYNKGRIEEAEVFFRFLCIYDFYNVDYIMGLAAIYQIKEQFQQAADLYAVAFALGKNDYTPVFHTGQCQLRLKAPLKAKECFELVIQHSNDEKLKIKAQSYLDAIQ”: “soluble”; “GSMAGEDVGAPPDHLWVHQEGIYRDEYQRTWVAVVEEETSFLRARVQQIQVPLGDAARPSHLLTSQLPLMWQLYPEERYMDNNSRLWQIQHHLMVRGVQELLLKLLPDDRSPGIHRD”: “soluble”.
The result for “GSMLISHSDMNQQLKSAGIGFNATELHGFLSGLLCGGLKDQSWLPLLYQFSNDNHAYPTGLVQPVTELYEQISQTLSDVEGFTFELGLTEDENVFTQADSLSDWANQFLLGIGLAQPELAKEKGEIGEAVDDLQDICQLGYDEDDNEEELAEALEEIIEYVRTIAMLFYSHFNEGEIESKPVLH” reads “soluble”.
The result for “GSMQRASRLKRELHMLATEPPPGITCWQDKDQMDDLRAQILGGANTPYEKGVFKLEVIIPERYPFEPPQIRFLTPIYHPNIDSAGRICLDVLKLPPKGAWRPSLNIATVLTSIQLLMSEPNPDDPLMADISSEFKYNKPAFLKNARQWTEKHARQKQKADEEEMLDNLP” reads “soluble”.
In the case of “GSMTEIALIGNPNSGKTSLFNLITGHNQRVGNWPGVTVERKSGLVKKNKDLEIQDLPGIYSMSPYSPEEKVARDYLLSQRADSILNVVDATNLERNLYLTTQLIETGIPVTIALNMIDVLDGQGKKINVDKLSYHLGVPVVATSALKQTGVDQVVKKAAHTTTSTVGDLAFPIYDDRLEAAISQILEVLGNSVPQRSARFYAIKLFEQDSLVEAELDLSQFQRKEIEDIIRITEEIFTEDAESIVINERYAFIERVCQMAESHTEDFALTLS”, the “soluble on expression in E. coli” value is recorded as “soluble”.
In the case of “GSMTGKSVKDVDRYQAVLANLLLEEDNKFCADCQSKGPRWASWNIGVFICIRCAGIHRNLGVHISRVKSVNLDQWTQEQIQCMQEMGNGKANRLYEAYLPETFRRPQIDPAVEGFIRDKYEKKKYMDRSLDINA”, the “soluble on expression in E. coli” value was “soluble”.
The result for “GSPALDTGTTEEDRLKIDVIDWLVFDPAQRAEALKQGNAIMRKFLASKKHEAAKEVFVKIPQDSIAEIYNQCEEQGMESPLPAEDDNAIREHLCIRAYLEAHETFNEWFKHMNSVPGGSGGSWKGHLDALTADVKEKMYNVLLFVDGGWMVDVREDAKEDHERTHQMVLLRKLCLPMLCFLLHTILHSTGQYQECLQLADMVSSERHKLYLVFSKEELRKLLQKLRESSLMLLDQGLDPLGYEIQL” reads “soluble”; that for “GSPGISGGGGGILVGSKMAASIRERQTVALKRMLNFNVPHVKNSPGEPVWKVLIYDRFGQDIISPLLSVKELRDMGITLHLLLHSDRDPIRDVPAVYFVMPTEENIDRLCQDLRNQLYESYYLNFISAISRSKLEDIANAALAANAVTQVAKVFDQYLN”, “soluble”.
Take “GSRATVFKLGLFKSLFLCSFHDITRLFKNDKTTNQQWVLAVFGLAEVFFEASFELLKKQCSFLQMQKRSHEGGTCAVYLICFNTAKSRETVRNLMANMLNVREECLMLQPPKIRGLSAALFWFKSSLSPATLKHGALPEWIRAQTTLN”: the “soluble on expression in E. coli” value is “soluble”.
Consider “GSSGSSGMGNSKSGALSKEILEELQLNTKFSEEELCSWYQSFLKDCPTGRITQQQFQSIYAKFFPDTDPKAYAQHVFRSFDSNLDGTLDFKEYVIALHMTTAGKTNQKLEWAFSLYDVDGNGTISKNEVLEIVMAIFKMITPEDVKLLPDDENTPEKRAEKIWKYFGKNDDDKLTEKEFIEGTLANKEILRLIQFEPQKVKEKMKNA”, for which the “soluble on expression in E. coli” value is listed as “soluble”.
For “GSSHHHHHHSSGLVPRGSHMQTTNAVDLGNPDLYTTLERHARWRELAAEDAMVWSDPGSSPSGFWSVFSHRACAAVLAPSAPLTSEYGMMIGFDRDHPDNSGGRMMVVSEHEQHRKLRKLVGPLLSRAAARKLAERVRIEVGDVLGRVLDGEVCDAATAIGPRIPAAVVCEILGVPAEDEDMLIDLTNHAFGGEDELFDGMTPRQAHTEILVYFDELITARRKEPGDDLVSTLVTDDDLTIDDVLLNCDNVLIGGNETTRHAITGAVHALATVPGLLTALRDGSADVDTVVEEVLRWTSPAMHVLRVTTADVTINGRDLPSGTPVVAWLPAANRDPAEFDDPDTFLPGRKPNRHITFGHGMHHCLGSALARIELSVVLRVLAERVSRVDLEREPAWLRAIVVQGYRELPVRFTGR”, the “soluble on expression in E. coli” value was “soluble”.
